Here are results for eight molecules from patent publication US20090197330A1 (BIOMEDICS, published 2009).

Test [1] has as its target T1, human CD20 antigen (human, UniProt P11836 1-297).
T1 construct: whole, on cells; also called CD20/CHO cells; CD20 on Raji cells
T1 sequence (looked up): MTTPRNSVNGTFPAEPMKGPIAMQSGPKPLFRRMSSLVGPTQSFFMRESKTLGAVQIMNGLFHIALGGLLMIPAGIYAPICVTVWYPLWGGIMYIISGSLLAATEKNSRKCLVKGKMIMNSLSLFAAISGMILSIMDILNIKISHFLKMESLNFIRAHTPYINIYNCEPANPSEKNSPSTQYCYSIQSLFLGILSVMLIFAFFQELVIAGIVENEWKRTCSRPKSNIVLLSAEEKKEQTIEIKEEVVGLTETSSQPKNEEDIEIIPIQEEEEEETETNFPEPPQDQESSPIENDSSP
Put plainly: SB cell-ELISA, antibody at 1000 ng/ml. An excerpt:
(§1) Several murine anti-CD20 monoclonal antibodies and 2B8 were reacted by using 96-well plates to which the SB cells, Raji cells, CD20/CHO cells and CD20 CHO parent cell line were adhered.
Background: An ELISA detects its analyte on a solid surface through an enzyme-linked reagent.

Test [2] addresses T1, human CD20 antigen. Put plainly: SB cell-ELISA, antibody at 320 ng/ml.
Description: as §1

Test [3] has as its target T1, human CD20 antigen. The experiment in a line: SB cell-ELISA, antibody at 10 ng/ml.
Description: as §1

For test [4], the target named is T1, human CD20 antigen. Put plainly: Raji cell-ELISA, antibody at 32 ng/ml.
Description: as §1

Test [5] concerns the target T1, human CD20 antigen. Put plainly: Raji cell-ELISA, antibody at 100 ng/ml.
Description: as §1

Test [6] has as its target T1, human CD20 antigen. The experiment in a line: Raji cell-ELISA, antibody at 320 ng/ml.
Description: as §1

Test [7] has as its target T1, human CD20 antigen. Put plainly: SB cell-ELISA, antibody at 100 ng/ml.
Description: as §1

For test [8], the target named is T1, human CD20 antigen. The experiment in a line: CD20/CHO cell-ELISA, antibody at 100 ng/ml.
Test [9] has as its target T1, human CD20 antigen. Put plainly: CD20/CHO cell-ELISA, antibody at 32 ng/ml.
Test [10] deals with T1, human CD20 antigen. Put plainly: CD20/CHO cell-ELISA, antibody at 1000 ng/ml.
Description: as §1

For test [11], the target named is T1, human CD20 antigen. Put plainly: CD20/CHO cell-ELISA, antibody at 10 ng/ml.
Test [12] deals with T1, human CD20 antigen. The experiment in a line: Raji cell-ELISA, antibody at 1000 ng/ml.
Description: as §1

Test [13] concerns the target T1, human CD20 antigen. The experiment in a line: Raji cell-ELISA, antibody at 10 ng/ml.
Description: as §1

The target of test [14] is T1, human CD20 antigen. The experiment in a line: SB cell-ELISA, antibody at 3 ng/ml.
For test [15], the target named is T1, human CD20 antigen. The experiment in a line: CD20/CHO cell-ELISA, antibody at 3 ng/ml.
Test [16] deals with T1, human CD20 antigen. Put plainly: SB cell-ELISA, antibody at 32 ng/ml.
Description: as §1

The target in test [17] is T1, human CD20 antigen. Put plainly: CD20/CHO cell-ELISA, antibody at 320 ng/ml.
Description: as §1

Test [18] addresses T1, human CD20 antigen. Put plainly: Raji cell-ELISA, antibody at 3 ng/ml.
Test [19] deals with T1, human CD20 antigen. Put plainly: SB cell-ELISA, negative control, concentration not clear.
Test [20] addresses T1, human CD20 antigen. Put plainly: Raji cell-ELISA, negative control, concentration not clear.
The target of test [21] is T1, human CD20 antigen. Put plainly: CD20/CHO cell-ELISA, negative control, concentration not clear.
For test [22], the target named is T1, human CD20 antigen. Put plainly: CD20/CHO cell-ELISA, antibody at 10 ng/ml.
Description: as §1
This is another data set of the same source.

Test [23] has as its target T1, human CD20 antigen. Put plainly: CD20/CHO cell-ELISA, antibody at 3 ng/ml.
Description: as §1
The source holds these as a separate data set.

Test [24] has as its target T1, human CD20 antigen. The experiment in a line: CD20/CHO cell-ELISA, antibody at 32 ng/ml.
Description: as §1
The source holds these as a separate data set.

Test [25] concerns the target T1, human CD20 antigen. The experiment in a line: CD20/CHO cell-ELISA, antibody at 100 ng/ml.
Description: as §1
This is another data set of the same source.

Test [26] addresses T1, human CD20 antigen. The experiment in a line: CD20/CHO cell-ELISA, antibody at 1 ng/ml. From the text:
(§2) The prepared 8 kinds of chimeric anti-CD20 monoclonal antibodies were examined for reactivity to the human CD20 antigen by the CD20/CHO cell-ELISA. Rituximab (c2B8) was used as a positive control. The values measured in the cell-ELISA (A492) reflect intensity of the binding property.

The target of test [27] is T1, human CD20 antigen. Put plainly: CD20/CHO cell-ELISA, antibody at 10 ng/ml.
Description: as §2
This is another data set of the same source.

Test [28] deals with T1, human CD20 antigen. The experiment in a line: CD20/CHO cell-ELISA, antibody at 3 ng/ml.
Description: as §2
This is another data set of the same source.

Test [29] addresses T1, human CD20 antigen. Put plainly: CD20/CHO cell-ELISA, antibody at 100 ng/ml.
Description: as §2
This is another data set of the same source.

For test [30], the target named is T1, human CD20 antigen. Put plainly: CD20/CHO cell-ELISA, antibody at 32 ng/ml.
Description: as §2
The source holds these as a separate data set.

For 2B8 (antibody), the A492 in test [1] was 0.337 A492; in test [2], 0.091 A492; in test [3], 0.037 A492; in test [4], 0.038 A492; in test [5] it was 0.055 A492; in test [6], 0.121 A492. Further, the A492 in test [7] was determined as 0.045 A492; in test [8], 1.09 A492; in test [9], 0.561 A492; in test [10] it was 2.29 A492; in test [11], 0.174 A492; in test [12], 0.329 A492. Besides, the A492 in test [13] was 0.034 A492; in test [14], 0.053 A492; in test [15], 0.089 A492; in test [16], 0.038 A492; in [17] it was 1.66 A492; in test [18], 0.046 A492.
As to NC, the A492 was determined as 0.028 A492 in test [19], 0.035 A492 in test [20] and 0.07 A492 in test [21].

B1: murine anti-CD20 monoclonal antibody 1K1228 (antibody, V domains shown)
VH: QVQLQQPGAELVKPGASVKVSCKASGFTFTSYNLHWVKQTPGQGLVWIGAIYPGNGDTSYNQKFRGKATLTADISSSTAYMQLSSLTSEDSAVYYCARYYYGYDAMDYWGQGTSVTVSS
VL: EIILTQSPTTMAASPGEKITITCSASSSISSYYLRWYQQKPGFSPKVLIYRTSNLASGVPARFSGSGSGTSYSLTIGTMEAEDVATYYCQQGNTVPLTFGSGTKLEIK
notes: Mouse monoclonal antibody from a hybridoma, purified on protein G
As for B1, the A492 in test [1] turned out to be 1.26 A492; in [2], 0.931 A492; in [3], 0.082 A492; in [4], 0.326 A492; in test [5], 0.678 A492; in [22], 0.572 A492. Moreover, the A492 in test [6] was found to be 1.17 A492; in test [7] it was 0.452 A492; in test [23], 0.265 A492; in test [24] it was 1.27 A492; in [10], 3.06 A492; in test [12] it was 1.68 A492. For the same molecule, the A492 in test [13] was 0.148 A492; in [16], 0.192 A492; in test [25], 2.09 A492; in test [17], 2.7 A492.

B2: murine anti-CD20 monoclonal antibody 1K1422 (antibody, V domains shown)
VH: QVQLQQPGAELVKPGASVKMSCRASGYTFTNYNMHWIKQTPGQGLEWIGAIYPGSGDTSYNRKFKGKATLTADTSSSTAYMQFSSLTSADSAVYYCARFTYYYGGTYGAMDYWGQGTSVTVSL
VL: QIVLTQSPPIMSASLGEEITLTCSASSRVSYMLWYQQKSGTSPKLLIYSTSNLASGVPSRFSGSGSGTFYSLTISSVEAEDAADYYCHQWTSNPCTFGGGTKLEIK
notes: Mouse monoclonal antibody from a hybridoma
Take B2: the A492 in test [1] was determined as 0.403 A492; in test [2], 0.147 A492; in [3], 0.036 A492; in [4], 0.057 A492; in [5], 0.121 A492; in [22], 0.105 A492. Besides, the A492 in test [6] is 0.277 A492; in test [7], 0.071 A492; in test [23], 0.068 A492; in test [24], 0.238 A492; in test [10], 2.23 A492; in test [12], 0.748 A492. Also, the A492 in test [13] came out at 0.046 A492; in test [16] it was 0.039 A492; in test [25] it was 0.842 A492; in [17], 1.33 A492.

B3: chimeric anti-CD20 monoclonal antibody c1K1791 (antibody, V domains shown)
VH: QIQLVQSGPELKKPGETVKISCKASGYTFTNFGVNWVKQAPGKGLKWMGWINTYTGEPSYADDFKGRFAFSLEASANTAYLQINNLKNDDMSTYFCTRRTNYYGTSYYYAMDYWGQGTSVTVSS
VL: STVMTQTPKFLLVSAGDRVTITCKASQSVSNDVAWYQQKPGQSPKVLIYFASNRYTGVPDRFTGSGYGTDFTFTINTVQAEDLAVYFCQQDYSSPLTFGAGTKLELK
notes: Murine variable regions fused to human immunoglobulin H chain and L chain (kappa) constant regions of vector pNOW-Ab
For B3, the A492 in test [26] was 0.108 A492; in test [27], 0.745 A492; in test [28], 0.276 A492; in [29], 2.23 A492; in test [30], 1.46 A492.

B4: murine anti-CD20 monoclonal antibody 1K1402 (antibody, V domains shown)
VH: QVQLQQPGAELVKPGASVKMSCKASGFTFTSYNMHWVKQTPGQGLEWIGGIYPGNGDTSYNQKFKGKATLTADKSSSTAYMQLSSLTSEDSAVYYCARFYYYGSMGAMDYWGQGTSVTVSS
VL: QIVLSQSPAILSASPGEKVTMTCRASSSVSYMHWYQQKPGSSPKPWIYATSNLASGVPARFSGSGSGTSYSLTITRVEAEDAATYYCQQWTFNPPTFGAGTKLELK
notes: as for B2
On to B4, for which the A492 was determined as 0.763 A492 in test [1]; 0.4 A492 in [2]; 0.066 A492 in test [3]; 0.102 A492 in [4]; 0.214 A492 in test [5]; 0.389 A492 in test [22]. Moreover, the A492 in test [6] was determined as 0.525 A492; in [7], 0.152 A492; in test [23], 0.174 A492; in test [24], 0.824 A492; in [10] it was 1.88 A492; in [12], 1.23 A492. Besides, the A492 in [13] is 0.061 A492; in [16], 0.095 A492; in test [25] it was 1.49 A492; in test [17], 1.57 A492.

B5: Rituximab (c2B8) (antibody, V domains shown)
VH: QVQLQQPGAELVKPGASVKMSCKASGYTFTSYNMHWVKQTPGRGLEWIGAIYPGNGDTSYNQKFKGKATLTADKSSSTAYMQLSSLTSEDSAVYYCARSTYYGGDWYFNVWGAGTTVTVSA
VL: QIVLSQSPAILSASPGEKVTMTCRASSSVSYIHWFQQKPGSSPKPWIYATSNLASGVPVRFSGSGSGTSYSLTISRVEAEDAATYYCQQWTSNPPTFGGGTKLEIK
With B5, the A492 came to 0.088 A492 in [26]; 0.536 A492 in test [27]; 0.226 A492 in test [28]; 2.15 A492 in [29]; 1.14 A492 in test [30].

B6: chimeric anti-CD20 monoclonal antibody c1K1782 (antibody, V domains shown)
VH: QVQLQQSGAELAKPGASVKMSCKASGYTFTSYWMHWVKQRPGQGLEWIGYITPSTGYTDYNKKFKDKATLTADRSSSTAYMHLSSLTSEDSAVYYCARSGPYFDVWGAGTTVTVSS
VL: DILLTQSPAILFVSPGERVSLSCRASQNIGTSIHWYQQRTNGSPRLLIKYASESFSGIPSRFSGSGSGTDFTLSINSVESEDIADYYCQQSNSWPFTFGSGTKLEIK
notes: as for B3
As to B6, the A492 in test [26] is 0.074 A492; in test [27], 0.505 A492; in test [28], 0.169 A492; in test [29], 2.1 A492; in [30] it was 1.02 A492.
